The values that follow come from article PMC8831599, “Defining molecular glues with a dual-nanobody cannabidiol sensor” (Nature Communications, 2022).

Conditions in all cases: both partners purified
Assay [1] deals with T1, DDB1-CRBN complex (CRBN Δ1-40 with full-length DDB1), tag-free (human, UniProt Q96SW2 41-442; Q16531 1-1140).
T1 construct: human cereblon (CRBN) lacking residues 1-40; human DDB1; also called CRBN–DDB1 complex; CRBN in complex with full-length DDB1; source: Hi5 insect cells, co-expressed, purified (Ni-NTA, TEV, anion exchange, SEC); not shown: SUMO-tag, N-terminal, cleaved; His-Msb-tag, N-terminal, cleaved
The assay can be described thus: BLI; biotinylated IKZF1 ZF2-3 or CK1α on streptavidin probe, tag-free DDB1–CRBN as analyte, no IMiD; 30 °C; 25 mM HEPES pH 7.4, 100 mM NaCl, 1 mM TCEP, 0.1% Tween-20, 0.05 mg/mL BSA. On the technique in general: Biolayer interferometry detects binding as a change in optical thickness at a sensor tip.

A further assay concerns the target T2, His-DDB1–CRBN complex (human, UniProt Q96SW2 41-442; Q16531 1-1140).
T2 construct: human cereblon (CRBN) lacking residues 1-40; human DDB1; Held on AlphaScreen acceptor beads by the His-tag; source: Hi5 insect cells, co-expressed, purified (Ni-NTA); not shown: His-Msb-tag, N-terminal, kept
The assay can be described thus: AlphaScreen or HTRF; competition without pomalidomide: 0.9 nM His-DDB1–CRBN on acceptor beads, 8.3 nM biotinylated IKZF1 ZF2-3 on donor beads, label-free IKZF1 ZF2-3 titrated.

The target in assay [2] is T3, GST-TIR1-ASK1 complex (Arabidopsis thaliana, UniProt Q570C0 1-594; Q39255 1-160).
T3 construct: F-box protein TIR1, Arabidopsis thaliana; ASK1 (SKP1 homologue), Arabidopsis thaliana; also called GST-tagged TIR1
T3 sequence (looked up) 1: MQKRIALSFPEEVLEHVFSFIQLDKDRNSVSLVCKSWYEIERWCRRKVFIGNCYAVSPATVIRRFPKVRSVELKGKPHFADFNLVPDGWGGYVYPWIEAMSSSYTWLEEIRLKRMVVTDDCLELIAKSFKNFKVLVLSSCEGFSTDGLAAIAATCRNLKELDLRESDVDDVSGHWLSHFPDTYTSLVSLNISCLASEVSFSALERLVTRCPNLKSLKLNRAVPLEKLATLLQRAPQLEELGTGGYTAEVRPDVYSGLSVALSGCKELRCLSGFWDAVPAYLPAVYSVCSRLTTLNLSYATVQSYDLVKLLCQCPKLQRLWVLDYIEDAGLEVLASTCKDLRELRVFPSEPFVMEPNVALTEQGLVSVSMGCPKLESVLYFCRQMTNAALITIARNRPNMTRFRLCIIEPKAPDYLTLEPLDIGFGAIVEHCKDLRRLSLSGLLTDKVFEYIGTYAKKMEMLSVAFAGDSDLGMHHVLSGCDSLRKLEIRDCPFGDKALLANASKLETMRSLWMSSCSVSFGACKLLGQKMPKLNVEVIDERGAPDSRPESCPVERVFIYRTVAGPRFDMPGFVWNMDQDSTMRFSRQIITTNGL
T3 sequence (looked up) 2: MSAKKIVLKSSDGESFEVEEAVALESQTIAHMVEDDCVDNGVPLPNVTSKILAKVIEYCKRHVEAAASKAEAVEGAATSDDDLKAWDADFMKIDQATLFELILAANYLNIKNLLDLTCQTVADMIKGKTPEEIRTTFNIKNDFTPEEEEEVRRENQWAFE
Kind of assay: AlphaScreen or HTRF; competition without auxin: 0.9 nM GST-TIR1 on acceptor beads, 8.3 nM biotinylated IAA7 degron peptide on donor beads, label-free IAA7 degron peptide titrated. In general terms: Bead proximity is the source of the signal in Alpha formats.

Assay [3] deals with T3, GST-TIR1-ASK1 complex. The assay can be described thus: BLI; TIR1 and IAA7 degron without auxin; biotinylated IAA7 on streptavidin probe or GST-TIR1 on anti-GST probe (not told which); 30 °C; 25 mM HEPES pH 7.4, 100 mM NaCl, 1 mM TCEP, 0.1% Tween-20, 0.05 mg/mL BSA.

Ends that are not written are not given here.

B1: Biotin-labeled Avi-CK1α (enzyme, human, UniProt P48729 1-337, looked up)
chain: MASSSGSKAEFIVGGKYKLVRKIGSGSFGDIYLAINITNGEEVAVKLESQKARHPQLLYESKLYKILQGGVGIPHIRWYGQEKDYNVLVMDLLGPSLEDLFNFCSRRFTMKTVLMLADQMISRIEYVHTKNFIHRDIKPDNFLMGIGRHCNKLFLIDFGLAKKYRDNRTRQHIPYREDKNLTGTARYASINAHLGIEQSRRDDMESLGYVLMYFNRTSLPWQGLKAATKKQKYEKISEKKMSTPVEVLCKGFPAEFAMYLNYCRGLRFEEAPDYMYLRQLFRILFRTLNHQYDYTFDWTMLKQKAAQQAASSSGQGQQAQTPTGKQTDKTKSNMKGF
modifications: biotin on the Avi-tag (BirA-catalyzed)
notes: human casein kinase 1 alpha (CK1α); also called CK1a; source: Hi5 insect cells, purified (Ni-NTA, TEV, cation exchange, SEC, BirA biotinylation, SEC); not shown: His-Set3, N-terminal, cleaved; Avi-tag, N-terminal, kept
Regarding B1, in assay [1], binding was put at a Kd of 2300 nM.

B2: Label-free IKZF1 ZF2-3 (141-196) (domain or fragment, human, UniProt Q13422 141-196, looked up)
chain: GERPFQCNQCGASFTQKGNLLRHIKLHSGEKPFKCHLCNYACRRRDALTGHLRTHS
notes: human IKZF1 (Ikaros), zinc fingers 2-3, residues 141-196; also called Avi-IKZF1^ZF2-3; not shown: GST, N-terminal, cleaved
With B2, the 50% inhibitory concentration (IC50) – broadly, the midpoint of a concentration-inhibition curve – in the assay with His-DDB1–CRBN complex was in the range of 200 to 300 nM.

B3: Biotin-labeled Avi-IKZF1 ZF2-3 (141-196) (domain or fragment, human, UniProt Q13422 141-196, looked up)
chain: {Avi‑tag(biotin)}-GERPFQCNQCGASFTQKGNLLRHIKLHSGEKPFKCHLCNYACRRRDALTGHLRTHS
modifications: cysteine pairing not given here
notes: human IKZF1 (Ikaros), zinc fingers 2-3, residues 141-196; also called biotinylated IKZF1^ZF2-3; not shown: GST, N-terminal, cleaved; Avi-tag, N-terminal, kept
Take B3: the equilibrium dissociation constant (Kd) (usually the equilibrium constant for the complex coming apart) in assay [1] worked out at 223 nM.

B4: IAA7 degron peptide, non-labeled (peptide)
chain: QVVGWPPVRNYRK
modifications: synthetic peptide, unlabelled; limits not given, taken from the IAA7 degron peptide of the TIR1-ASK1 crystal structures (13-mer, PDB 2P1Q)
In the case of B4, the IC50 with GST-TIR1-ASK1 complex [2] is 18 to 20 µM. Besides, the affinity in the assay with GST-TIR1-ASK1 complex [3], expressed as Kd, was 18.5 µM.
